Source: US20220010021A1 (Sanofi, published 2022)

Biological target: human FGFR1c + KLB receptor complex on HEK293 iLite FGF21 reporter cells (human, UniProt P11362 22-822; Q86Z14 1-1044)
Experiment: cell-based or functional assay

human FGFR1c + KLB receptor complex on HEK293 iLite FGF21 reporter cells, sequence (P11362 22-822, chain 1 of 2): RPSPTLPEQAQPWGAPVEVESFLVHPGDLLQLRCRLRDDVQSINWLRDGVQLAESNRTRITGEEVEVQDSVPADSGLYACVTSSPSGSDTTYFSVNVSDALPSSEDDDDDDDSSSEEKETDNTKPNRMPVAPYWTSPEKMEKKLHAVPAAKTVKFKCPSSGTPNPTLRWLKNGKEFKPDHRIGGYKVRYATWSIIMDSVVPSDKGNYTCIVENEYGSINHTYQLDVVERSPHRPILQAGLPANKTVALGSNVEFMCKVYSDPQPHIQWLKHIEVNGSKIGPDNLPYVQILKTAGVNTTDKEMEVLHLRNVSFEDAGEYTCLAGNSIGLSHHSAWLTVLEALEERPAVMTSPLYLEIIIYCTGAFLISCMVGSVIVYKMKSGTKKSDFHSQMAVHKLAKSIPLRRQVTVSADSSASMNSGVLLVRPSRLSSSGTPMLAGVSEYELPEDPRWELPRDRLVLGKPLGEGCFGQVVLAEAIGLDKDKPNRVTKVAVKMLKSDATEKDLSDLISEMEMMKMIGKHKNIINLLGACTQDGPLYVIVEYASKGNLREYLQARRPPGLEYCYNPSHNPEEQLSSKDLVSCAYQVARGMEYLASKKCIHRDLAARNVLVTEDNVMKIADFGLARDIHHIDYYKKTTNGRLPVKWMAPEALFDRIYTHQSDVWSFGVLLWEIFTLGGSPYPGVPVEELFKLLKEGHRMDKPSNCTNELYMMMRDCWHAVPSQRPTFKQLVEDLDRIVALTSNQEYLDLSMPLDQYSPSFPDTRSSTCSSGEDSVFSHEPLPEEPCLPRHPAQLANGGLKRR
human FGFR1c + KLB receptor complex on HEK293 iLite FGF21 reporter cells, sequence (Q86Z14 whole entry, chain 2 of 2): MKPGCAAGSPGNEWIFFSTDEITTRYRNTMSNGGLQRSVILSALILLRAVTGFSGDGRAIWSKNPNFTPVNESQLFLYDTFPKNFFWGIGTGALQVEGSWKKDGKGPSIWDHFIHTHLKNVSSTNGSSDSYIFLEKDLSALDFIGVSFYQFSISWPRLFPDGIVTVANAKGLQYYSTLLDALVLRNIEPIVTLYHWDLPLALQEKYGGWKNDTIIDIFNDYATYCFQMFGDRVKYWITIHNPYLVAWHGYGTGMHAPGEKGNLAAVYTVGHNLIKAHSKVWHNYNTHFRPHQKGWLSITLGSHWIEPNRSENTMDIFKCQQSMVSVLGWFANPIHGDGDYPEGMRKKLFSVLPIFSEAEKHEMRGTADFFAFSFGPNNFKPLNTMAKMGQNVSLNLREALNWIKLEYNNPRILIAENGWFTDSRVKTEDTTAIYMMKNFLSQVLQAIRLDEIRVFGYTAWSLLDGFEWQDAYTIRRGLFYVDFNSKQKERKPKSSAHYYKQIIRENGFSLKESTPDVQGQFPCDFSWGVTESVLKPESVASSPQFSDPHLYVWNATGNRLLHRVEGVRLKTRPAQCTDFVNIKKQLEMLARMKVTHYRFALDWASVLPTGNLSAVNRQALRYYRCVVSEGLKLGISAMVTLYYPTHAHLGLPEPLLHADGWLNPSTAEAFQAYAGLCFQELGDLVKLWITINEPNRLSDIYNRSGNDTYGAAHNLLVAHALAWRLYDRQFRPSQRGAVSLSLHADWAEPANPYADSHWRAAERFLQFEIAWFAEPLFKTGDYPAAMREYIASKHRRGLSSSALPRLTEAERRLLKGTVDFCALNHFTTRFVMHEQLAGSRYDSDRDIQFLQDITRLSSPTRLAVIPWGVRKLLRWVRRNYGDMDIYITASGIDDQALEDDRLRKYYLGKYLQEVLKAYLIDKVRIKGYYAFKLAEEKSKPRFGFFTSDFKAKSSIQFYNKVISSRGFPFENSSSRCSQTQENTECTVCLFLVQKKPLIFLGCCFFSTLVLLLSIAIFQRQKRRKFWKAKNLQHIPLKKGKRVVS

| Binder | EC50 [pM] | Emax [%] |
| --- | --- | --- |
| Ab0351 (antibody, human IgG4 S228P, lambda) heavy: not shown light: SYVLTQPPSVSVAPGQTARITCGGSNIGSESVHWYQQKPGQAPVLVVYEESDRPSGIPERFSGSNSGNTATLTISRVEAGDEADYYCQVWEGESDHVVFGGGTKLTVLGQPKANPTVTLFPPSSEELQANKATLVCLISDFYPGAVTVAWKADGSPVKAGVETTKPSKQSNNKYAASSYLSLTPEQWKSHRSYSCQVTHEGSTVEKTVAPTECS | 30 | 1040 |
| Ab0428 (antibody, human IgG1, lambda) heavy: not shown light: SYVLTQPPSVSVAPGQTARITCGGSNIGSESVHWYQQKPGQAPVLVVYSESDRPSGIPERFSGSNSGNTATLTISRVEAGDEADYYCQVWEGESDHVVFGGGTKLTVLGQPKANPTVTLFPPSSEELQANKATLVCLISDFYPGAVTVAWKADGSPVKAGVETTKPSKQSNNKYAASSYLSLTPEQWKSHRSYSCQVTHEGSTVEKTVAPTECS | 30 | 1280 |
| Ab0334 (antibody, IgG4, V domains shown) VH: QVTLKESGPVLVKPTETLTLTCTVSGFSLNNARVGVSWIRQPPGKALEWLAHIFSNDEKSYSTSLKSRLTISKDTSKSQVVLTMTNMDPVDTATYYCARSVVTGGYYYEGMDVWGQGTTVTVSS VL: SYVLTQPPSVSVAPGQTARITCGGSNIGSESVHWYQQKPGQAPVLVVYSASDRPSGIPERFSGSNSGNTATLTISRVEAGDEADYYCQVWAGSSDHVVFGGGTKLTVLG | 1020 | 718 |
| Ab0336 (antibody, IgG4, V domains shown) VH: QVTLKESGPVLVKPTETLTLTCTVSGFSLNNARVGVSWIRQPPGKALEWLAHIFSNDEKSYSTSLKSRLTISKDTSKSQVVLTMTNMDPVDTATYYCARSVVTGGYYYEGMDVWGQGTTVTVSS VL: SYVLTQPPSVSVAPGQTARITCGGSNIGSESVHWYQQKPGQAPVLVVYSHSDRPSGIPERFSGSNSGNTATLTISRVEAGDEADYYCQVWAGSSDHVVFGGGTKLTVLG | 2910 | 576 |
| Ab0348 (antibody, IgG4, V domains shown) VH: QVTLKESGPVLVKPTETLTLTCTVSGFSLNNARVGVSWIRQPPGKALEWLAHIFSNDEKSYSTSLKSRLTISKDTSKSQVVLTMTNMDPVDTATYYCARSVVTGGYYYEGMDVWGQGTTVTVSS VL: SYVLTQPPSVSVAPGQTARITCGGSNIGSESVHWYQQKPGQAPVLVVYEESDRPSGIPERFSGSNSGNTATLTISRVEAGDEADYYCQVWTGESDHVVFGGGTKLTVLG | 530 | 641 |
| Ab0346 (antibody, IgG4, V domains shown) VH: QVTLKESGPVLVKPTETLTLTCTVSGFSLNNARVGVSWIRQPPGKALEWLAHIFSNDEKSYSTSLKSRLTISKDTSKSQVVLTMTNMDPVDTATYYCARSVVTGGYYYEGMDVWGQGTTVTVSS VL: SYVLTQPPSVSVAPGQTARITCGGSNIGSESVHWYQQKPGQAPVLVVYAHSDRPSGIPERFSGSNSGNTATLTISRVEAGDEADYYCQVWAGSSDHVVFGGGTKLTVLG | 2250 | 532 |
| Ab0339 (antibody, IgG4, V domains shown) VH: QVTLKESGPVLVKPTETLTLTCTVSGFSLNNARVGVSWIRQPPGKALEWLAHIFSNDEKSYSTSLKSRLTISKDTSKSQVVLTMTNMDPVDTATYYCARSVVTGGYYYEGMDVWGQGTTVTVSS VL: SYVLTQPPSVSVAPGQTARITCGGSNIGSESVHWYQQKPGQAPVLVVYAESDRPSGIPERFSGSNSGNTATLTISRVEAGDEADYYCQVWAGSSDHVVFGGGTKLTVLG | 2160 | 545 |
| Ab0349 (antibody, IgG4, V domains shown) VH: QVTLKESGPVLVKPTETLTLTCTVSGFSLNNARVGVSWIRQPPGKALEWLAHIFSNDEKSYSTSLKSRLTISKDTSKSQVVLTMTNMDPVDTATYYCARSVVTGGYYYEGMDVWGQGTTVTVSS VL: SYVLTQPPSVSVAPGQTARITCGGSNIGSESVHWYQQKPGQAPVLVVYEESDRPSGIPERFSGSNSGNTATLTISRVEAGDEADYYCQVWTGSSDHVVFGGGTKLTVLG | 10700 | 511 |
| Ab0347 (antibody, IgG4, V domains shown) VH: QVTLKESGPVLVKPTETLTLTCTVSGFSLNNARVGVSWIRQPPGKALEWLAHIFSNDEKSYSTSLKSRLTISKDTSKSQVVLTMTNMDPVDTATYYCARSVVTGGYYYEGMDVWGQGTTVTVSS VL: SYVLTQPPSVSVAPGQTARITCGGSNIGSESVHWYQQKPGQAPVLVVYASSDRPSGIPERFSGSNSGNTATLTISRVEAGDEADYYCQVWAGSSDHVVFGGGTKLTVLG | 240 | 695 |
| Ab0343 (antibody, IgG4, V domains shown) VH: QVTLKESGPVLVKPTETLTLTCTVSGFSLNNARVGVSWIRQPPGKALEWLAHIFSNDEKSYSTSLKSRLTISKDTSKSQVVLTMTNMDPVDTATYYCARSVVTGGYYYEGMDVWGQGTTVTVSS VL: SYVLTQPPSVSVAPGQTARITCGGSNIGSESVHWYQQKPGQAPVLVVYAASDRPSGIPERFSGSNSGNTATLTISRVEAGDEADYYCQVWAGSSDHVVFGGGTKLTVLG | 1370 | 482 |
| Ab0342 (antibody, IgG4, V domains shown) VH: QVTLKESGPVLVKPTETLTLTCTVSGFSLNNARVGVSWIRQPPGKALEWLAHIFSNDEKSYSTSLKSRLTISKDTSKSQVVLTMTNMDPVDTATYYCARSVVTGGYYYEGMDVWGQGTTVTVSS VL: SYVLTQPPSVSVAPGQTARITCGGSNIGSESVHWYQQKPGQAPVLVVYAASDRPSGIPERFSGSNSGNTATLTISRVEAGDEADYYCQVWAGESDHVVFGGGTKLTVLG | 340 | 775 |
| Ab0341 (antibody, IgG4, V domains shown) VH: QVTLKESGPVLVKPTETLTLTCTVSGFSLNNARVGVSWIRQPPGKALEWLAHIFSNDEKSYSTSLKSRLTISKDTSKSQVVLTMTNMDPVDTATYYCARSVVTGGYYYEGMDVWGQGTTVTVSS VL: SYVLTQPPSVSVAPGQTARITCGGSNIGSESVHWYQQKPGQAPVLVVYAYSDRPSGIPERFSGSNSGNTATLTISRVEAGDEADYYCQVWAGSSDHVVFGGGTKLTVLG | 1400 | 528 |

The remaining lines, values ahead:

| EC50 [pM] | Emax [%] | Binder |
| --- | --- | --- |
| 30 | 1100 | Ab0430 (antibody, human IgG1, lambda) heavy: not shown light: SYVLTQPPSVSVAPGQTARITCGGSNIGSESVHWYQQKPGQAPVLVVYEESDRPSGIPERFSGSNSGNTATLTISRVEAGDEADYYCQVWEGESDHVVFGGGTKLTVLGQPKANPTVTLFPPSSEELQANKATLVCLISDFYPGAVTVAWKADGSPVKAGVETTKPSKQSNNKYAASSYLSLTPEQWKSHRSYSCQVTHEGSTVEKTVAPTECS |
| 40 | 1290 | Ab0429 (antibody, human IgG1, lambda) heavy: not shown light: SYVLTQPPSVSVAPGQTARITCGGSNIGSESVHWYQQKPGQAPVLVVYSASDRPSGIPERFSGSNSGNTATLTISRVEAGDEADYYCQVWEGESDHVVFGGGTKLTVLGQPKANPTVTLFPPSSEELQANKATLVCLISDFYPGAVTVAWKADGSPVKAGVETTKPSKQSNNKYAASSYLSLTPEQWKSHRSYSCQVTHEGSTVEKTVAPTECS |
| 70 | 1390 | Ab0424 (antibody, IgG4, V domains shown) VH: QVTLKESGPVLVKPTETLTLTCTVSGFSLNNARVGVSWIRQPPGKALEWLAHIFSNDEKSYSTSLKSRLTISKDTSKSQVVLTMTNMDPVDTATYYCARSVVTGGYYYEGMDVWGQGTTVTVSS VL: SYVLTQPPSVSVAPGQTARITCGGSNIGSESVHWYQQKPGQAPVLVVYSSSDRPSGIPERFSGSNSGNTATLTISRVEAGDEADYYCQVWHGASDHVVFGGGTKLTVLG |
| 2530 | 550 | Ab0359 (antibody, IgG4, V domains shown) VH: QVTLKESGPVLVKPTETLTLTCTVSGFSLNNARVGVSWIRQPPGKALEWLAHIFSNDEKSYSTSLKSRLTISKDTSKSQVVLTMTNMDPVDTATYYCARSVVTGGYYYEGMDVWGQGTTVTVSS VL: SYVLTQPPSVSVAPGQTARITCGGSNIGSESVHWYQQKPGQAPVLVVYEHSDRPSGIPERFSGSNSGNTATLTISRVEAGDEADYYCQVWAGSSDHVVFGGGTKLTVLG |
| 480 | 736 | Ab0363 (antibody, IgG4, V domains shown) VH: QVTLKESGPVLVKPTETLTLTCTVSGFSLNNARVGVSWIRQPPGKALEWLAHIFSNDEKSYSTSLKSRLTISKDTSKSQVVLTMTNMDPVDTATYYCARSVVTGGYYYEGMDVWGQGTTVTVSS VL: SYVLTQPPSVSVAPGQTARITCGGANIGSESVHWYQQKPGQAPVLVVYSASDRPSGIPERFSGSNSGNTATLTISRVEAGDEADYYCQVWAGASDHVVFGGGTKLTVLG |
| 11600 | 662 | Ab0362 (antibody, IgG4, V domains shown) VH: QVTLKESGPVLVKPTETLTLTCTVSGFSLNNARVGVSWIRQPPGKALEWLAHIFSNDEKSYSTSLKSRLTISKDTSKSQVVLTMTNMDPVDTATYYCARSVVTGGYYYEGMDVWGQGTTVTVSS VL: SYVLTQPPSVSVAPGQTARITCGGSNIGSESVHWYQQKPGQAPVLVVYTESDRPSGIPERFSGSNSGNTATLTISRVEAGDEADYYCQVWAGSSDHVVFGGGTKLTVLG |
| 850 | 583 | Ab0365 (antibody, IgG4, V domains shown) VH: QVTLKESGPVLVKPTETLTLTCTVSGFSLNNARVGVSWIRQPPGKALEWLAHIFSNDEKSYSTSLKSRLTISKDTSKSQVVLTMTNMDPVDTATYYCARSVVTGGYYYEGMDVWGQGTTVTVSS VL: SYVLTQPPSVSVAPGQTARITCGGANIGSESVHWYQQKPGQAPVLVVYTESDRPSGIPERFSGSNSGNTATLTISRVEAGDEADYYCQVWAGSSDHVVFGGGTKLTVLG |
| 50 | 1510 | Ab0423 (antibody, IgG4, V domains shown) VH: QVTLKESGPVLVKPTETLTLTCTVSGFSLNNARVGVSWIRQPPGKALEWLAHIFSNDEKSYSTSLKSRLTISKDTSKSQVVLTMTNMDPVDTATYYCARSVVTGGYYYEGMDVWGQGTTVTVSS VL: SYVLTQPPSVSVAPGQTARITCGGSNIGSESVHWYQQKPGQAPVLVVYSSSDRPSGIPERFSGSNSGNTATLTISRVEAGDEADYYCQVWEGASDHVVFGGGTKLTVLG |
| 5350 | 620 | Ab0356 (antibody, IgG4, V domains shown) VH: QVTLKESGPVLVKPTETLTLTCTVSGFSLNNARVGVSWIRQPPGKALEWLAHIFSNDEKSYSTSLKSRLTISKDTSKSQVVLTMTNMDPVDTATYYCARSVVTGGYYYEGMDVWGQGTTVTVSS VL: SYVLTQPPSVSVAPGQTARITCGGSNIGSESVHWYQQKPGQAPVLVVYEASDRPSGIPERFSGSNSGNTATLTISRVEAGDEADYYCQVWAGSSDHVVFGGGTKLTVLG |
